Results reported in patent US20110294740A1.

Target: Dutch/Iowa CAA double mutant Aβ40 (UniProt P05067)
Experiment: SPR, Aβ peptide immobilised, MBP as analyte

Chain of Dutch/Iowa CAA double mutant Aβ40 (P05067 672-711, change not shown): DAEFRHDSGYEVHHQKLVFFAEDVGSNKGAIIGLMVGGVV
Chain of myelin basic protein (purified MBP) (P02686 135-304 limits assumed): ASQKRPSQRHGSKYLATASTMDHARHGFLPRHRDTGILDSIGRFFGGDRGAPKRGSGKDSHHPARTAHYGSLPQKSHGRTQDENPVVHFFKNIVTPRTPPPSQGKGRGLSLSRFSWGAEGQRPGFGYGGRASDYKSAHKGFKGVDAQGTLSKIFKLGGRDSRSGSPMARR

Work on “myelin basic protein (purified MBP) (from UniProt P02686 2-171)” yielded a Kd of 16.9 nM.
